Residue numbers refer to the chain shown, from its start. Blank lines part the entries; values can stand above or below the binder they belong to.
Legend:
Assay in all cases: binding to HEK293T cells expressing Nectin-4 mutant
human Nectin-4 Mutant 2 = target: T1, human Nectin-4 Mutant 2 (human, UniProt Q96NY8 32-510)
T1 construct: Expressed on transfected HEK293T cells; also called V90S/P92A/A93S/E95A/G96D
T1 chain: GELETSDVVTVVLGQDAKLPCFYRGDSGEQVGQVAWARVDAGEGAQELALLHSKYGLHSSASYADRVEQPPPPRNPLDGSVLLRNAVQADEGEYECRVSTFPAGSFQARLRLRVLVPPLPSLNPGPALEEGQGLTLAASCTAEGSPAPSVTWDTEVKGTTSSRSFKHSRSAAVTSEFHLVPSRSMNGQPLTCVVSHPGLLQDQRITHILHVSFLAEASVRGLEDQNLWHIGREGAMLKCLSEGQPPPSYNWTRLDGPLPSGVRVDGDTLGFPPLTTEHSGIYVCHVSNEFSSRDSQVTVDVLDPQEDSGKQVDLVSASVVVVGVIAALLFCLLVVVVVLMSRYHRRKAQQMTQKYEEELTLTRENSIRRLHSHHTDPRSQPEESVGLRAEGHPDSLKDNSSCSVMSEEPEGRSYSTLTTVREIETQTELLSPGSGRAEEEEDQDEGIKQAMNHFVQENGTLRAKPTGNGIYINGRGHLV

human Nectin-4 Mutant 3 = target: T2, human Nectin-4 Mutant 3 (human, UniProt Q96NY8 32-510)
T2 construct: Expressed on transfected HEK293T cells; also called A76S/Q77R/E78A/S91N
T2 chain: T1 chain with A45S, Q46R, E47A, S59V, S60N, A61P, S62A, A64E, D65G

human Nectin-4 Mutant 4 = target: T3, human Nectin-4 Mutant 4 (human, UniProt Q96NY8 32-510)
T3 construct: Expressed on transfected HEK293T cells; also called A72P/G73N/G75S
T3 chain: T1 chain with A41P, G42N, G44S, S59V, A61P, S62A, A64E, D65G

human Nectin-4 Mutant 8 = target: T4, human Nectin-4 Mutant 8 (human, UniProt Q96NY8 32-510)
T4 construct: Expressed on transfected HEK293T cells; also called T190A/T191Q/S193A
T4 chain: T1 chain with S59V, A61P, S62A, A64E, D65G, T159A, T160Q, S162A

human Nectin-4 Mutant 9 = target: T5, human Nectin-4 Mutant 9 (human, UniProt Q96NY8 32-510)
T5 construct: Expressed on transfected HEK293T cells; also called L150S/S152A/Q234R/I236S
T5 chain: T1 chain with S59V, A61P, S62A, A64E, D65G, L119S, S121A, Q203R, I205S

binding result (human Nectin-4 Mutant 2): binds
binding result (human Nectin-4 Mutant 3): binds
binding result (human Nectin-4 Mutant 4): binds
binding result (human Nectin-4 Mutant 8): binds
binding result (human Nectin-4 Mutant 9): binds
B1: chimeric parental 5E7 antibody (antibody, V domains shown)
VH: QVQLQQPGAELVKPGASVKLSCKASGYIFTSYWMHWVKQRPGQGLEWIGEIDPSDSYTNYNQKFKGKATLTLDKSSSTTYMQLSSLTSEDSAVYYCVRGYGNYGDYWGQGTTLTVSS
VL: DVVMTQAAFSNPVTLGTSASISCRSSKSLLHSNGITYLYWYLQKPGQSPQLLIYQMSNLASGVPDRFSSSGSGTDFTLRISRVEAEDVGVYYCAQNLELPWTFGGGTKLEIKR
notes: Chimeric antibody, murine variable domains with human constant regions; also called ch5E7; CHG1-M-1N4-5E7

B2: N41 (antibody, V domains shown)
VH: QVQLKQSGPGLVQPSQSLSITCTVSGFSLTNYGVHWVRQSPGKGLEWLGVIWSGGSTDYNAAFISRLSISKDTSKSQVFFKMNSLQADDTAIYYCARELIHAMDNWGQGTSVTVSS
VL: DIQMTQSPASLSVSVGETVTITCRASENIYSNLAWYQQKQGNSPQLLVFAATNLADGVPSRFSGSGSGTQYSLKINSLQSEDFGTYYCQHFWGTPTFGGGTKLEIK
binding result (human Nectin-4 Mutant 2): binds
binding result (human Nectin-4 Mutant 3): binds
binding result (human Nectin-4 Mutant 4): binds
binding result (human Nectin-4 Mutant 8): binds
binding result (human Nectin-4 Mutant 9): binds

Reference: patent US20250297004A1, “NECTIN-4 BINDING AGENTS” (INNATE PHARMA, priority 2022, published 2025)
